Biological target: TATA-binding protein (Saccharomyces cerevisiae (strain ATCC 204508 / S288c) (Baker's yeast)) (UniProt P13393)

- amount required for 50% inhibition of in vitro transcription by RNA polymerase II holoenzyme: 0.5 pmol
Substance: purified yeast NC2 (DRAP1/Dr1) with epitope-tagged (FLAG) NC2α/DRAP1 subunit
